Assay results as given in doi:10.1101/2023.09.21.558797 (2023).

B1: GST-Dyn1xA-PRR (full-length proline-rich region of Dynamin 1 splice variant xA, 746-864) [rat] / Endophilin A1 (endogenous, rat brain synaptosomes) [rat (endogenous in rat brain synaptosomes)] (parent complex)
chain 1: NTTTVSTPMPPPVDDSWLQVQSVPAGRRSPTSSPTPQRRAPAVPPARPGSRGPAPGPPPAGSALGGAPPVPSRPGASPDPFGPPPQVPSRPNRAPPGVPSRSGQASPSRPESPRPPFDL
chain 2: MSVAGLKKQFHKATQKVSEKVGGAEGTKLDDDFKEMERKVDVTSRAVMEIMTKTIEYLQPNPASRAKLSMINTMSKIRGQEKGPGYPQAEALLAEAMLKFGRELGDDCNFGPALGEVGEAMRELSEVKDSLDMEVKQNFIDPLQNLHDKDLREIQHHLKKLEGRRLDFDYKKKRQGKIPDEELRQALEKFDESKEIAESSMFNLLEMDIEQVSQLSALVQAQLEYHKQAVQILQQVTVRLEERIRQASSQPRREYQPKPRMSLEFATGDGTQPNGGLSHTGTPKPAGVQMDQPCCRALYDFEPENEGELGFKEGDIITLTNQIDENWYEGMLHGQSGFFPINYVEILVALPH
B2: GST-Dyn1xA-PRR (full-length proline-rich region of Dynamin 1 splice variant xA, 746-864) [rat] / Amphiphysin 1 (endogenous, rat brain synaptosomes) [rat (endogenous in rat brain synaptosomes)] (parent complex)
chain 1: B1 chain 1
chain 2: MADIKTGIFAKNVQKRLNRAQEKVLQKLGKADETKDEQFEEYVQNFKRQEAEGTRLQRELRGYLAAIKGMQEASMKLTESLHEVYEPDWYGREDVKMVGEKCDVLWEDFHQKLVDGSLLTLDTYLGQFPDIKNRIAKRSRKLVDYDSARHHLEALQSSKRKDESRISKAEEEFQKAQKVFEEFNVDLQEELPSLWSRRVGFYVNTFKNVSSLEAKFHKEIAVLCHKLYEVMTKLGDQHADKAFSIQGAPSDSGPLRIAKTPSPPEEASPLPSPTASPNHTLAPASPAPVRPRSPSQTRKGPPVPPLPKVTPTKELQQENIINFFEDNFVPEINVTTPSQNEVLEVKKEETLLDLDFDPFKPDVTPAGSAAATHSPMSQTLPWDLWTTSTDLVQPASGGSFNDFTQPQDTSLFTMQTDQNMAETEQALPTEPQAEEPPTTAAAPTAGLDLGLEMEEPKEEAAIPPGTDAGETVGTEGSTGEEAEAEKAALPAGEGESPEGAKIDVESTELASSESPQAAELEAGAPQEKVIPSVVIEPASNHEGEEHQETTTGTETREATEDVAPQGPAGEKQELATEPTPLDSQAATPAPAGAVDASLSAGDAAQELPPGFLYKVETLHDFEAANSDELTLQRGDVVLVVPSDSEADQDAGWLVGVKESDWLQYRDLATYKGLFPENFTRHLE

Variants of: B1
Experiment: GST pull-down, densitometry of western blots; n=2; parent: 100; read off a plot

Row | Variant | percent of parent [%]
1 | chain 1 S106E, chain 1 S112E | ~53
2 | chain 1 S29E, chain 1 S33E | ~37

Variants of: B2
Experiment: as above

Row | Variant | percent of parent [%]
3 | chain 1 S106E, chain 1 S112E | ~90
4 | chain 1 S29E, chain 1 S33E | ~98
